Measurements: patent publication US20240287547, “GENETIC MODIFICATION” (Peter Biotherapeutics, Inc., published 2024)

Assays:
Test in all cases: cell_activity; U937 RT-PCR; also edits KRAS in HEK293
[1] = target: pb76 DLRRR (7-zinc finger array + triple R element) (artificial)
From the text: (§1) As described above, each plasmid, pb74, pb75, and pb76 was introduced into U937 cells by electroporation. A “no DNA” transfection was used as control. […] post electroporation, cells transfected with these plasmids were detached and collected. Total RNAs from each condition were then extracted by using Trizol reagent. Five hundred nanograms of total RNA was then converted into DNA by reverse transcription (RT) reaction, followed by PCR using a primer set of Pop133 (SEQ ID. NO. 228) and Pop134 (SEQ ID. NO. 229). Three independent experiments were conducted. KRAS mRNA expression was quantitated by calculations of amplification band intensity of RT-PCR KRAS normalized by corresponding that of Ref-BMG using Bio-Rad Imagelab software. Introduction of pb74 (DLR), ob75 (DLRR), and pb76 (DLRRR) inhibit KRAS gene expression more than 50%.

[2] = target: pb74 DLR (7-zinc finger array + single R element) (artificial)
From the text: as §1

[3] = target: pb75 DLRR (7-zinc finger array + double R element) (artificial)
From the text: as §1

Measured: activity

pb75 DLRR (7-zinc finger array + double R element) (artificial), sequence (chain, as listed by the source): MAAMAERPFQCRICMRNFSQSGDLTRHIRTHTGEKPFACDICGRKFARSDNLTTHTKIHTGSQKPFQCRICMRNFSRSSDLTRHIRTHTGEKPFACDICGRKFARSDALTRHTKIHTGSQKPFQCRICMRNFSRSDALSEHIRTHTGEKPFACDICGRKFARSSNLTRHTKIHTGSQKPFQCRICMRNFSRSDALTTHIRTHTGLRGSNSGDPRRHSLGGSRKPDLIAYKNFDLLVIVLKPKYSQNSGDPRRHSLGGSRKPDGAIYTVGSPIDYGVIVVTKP
pb74 DLR (7-zinc finger array + single R element) (artificial), sequence (chain, as listed by the source): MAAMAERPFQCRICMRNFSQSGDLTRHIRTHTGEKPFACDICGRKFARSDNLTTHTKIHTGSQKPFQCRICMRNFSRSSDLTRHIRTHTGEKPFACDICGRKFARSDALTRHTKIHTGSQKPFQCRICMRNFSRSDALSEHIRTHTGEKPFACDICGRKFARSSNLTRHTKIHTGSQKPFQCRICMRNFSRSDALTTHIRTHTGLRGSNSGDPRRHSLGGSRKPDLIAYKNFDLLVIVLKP
pb76 DLRRR (7-zinc finger array + triple R element) (artificial), sequence (chain, as listed by the source): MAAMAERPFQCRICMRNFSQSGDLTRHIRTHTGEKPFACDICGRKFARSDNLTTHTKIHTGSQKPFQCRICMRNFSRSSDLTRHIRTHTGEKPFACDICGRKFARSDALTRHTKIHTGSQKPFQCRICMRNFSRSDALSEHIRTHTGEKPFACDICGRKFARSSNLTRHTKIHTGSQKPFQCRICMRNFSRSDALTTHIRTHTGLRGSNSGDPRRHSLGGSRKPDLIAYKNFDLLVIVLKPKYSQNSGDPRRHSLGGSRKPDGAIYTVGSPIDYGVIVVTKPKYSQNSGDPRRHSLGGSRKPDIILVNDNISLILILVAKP

B1: KRAS exon 1 site (dsDNA)
DNA 1: TTGGAGCTGGTGGCGTAGGCA
DNA 2: TGCCTACGCCACCAGCTCCAA
> 50 % inhibition of KRAS mRNA: all assays above
